# In the Human Domainome abundance scans (Beltran et al. 2025):
# ± gives the uncertainty stated by the source.
# B1: Friend leukemia integration 1 transcription factor, residues 116 to 197; numbered along this chain, Q01543 (parent)
# chain: NMTTNERRVIVPADPTLWTQEHVRQWLEWAIKEYSLMEIDTSFFQNMDGKELCKMNKEDFLRATTLYNTEVLLSHLSYLRES
# Variants of: B1
# Assay: abundance fitness (aPCA) (normalised: wild type 0, dead -1); higher = more abundant; growth selection in yeast, the domain comes from the species named
# Settings: Homo sapiens
row,Variant,abundance fitness
1,NMTTNERRVIVPADPTLWTQEHVRQWLEWAIKEYSLMCIDTSFFQNMDGKELCKMNKEDFLRATTLYNTEVLLSHLSYLRES [E38C],-0.126 ± 0.16
2,NMTTNERRVIVPADPTLWTQEHVRQWLEWAIKEYSLMGIDTSFFQNMDGKELCKMNKEDFLRATTLYNTEVLLSHLSYLRES [E38G],-0.131 ± 0.11
3,NMTTNERRVIVPADPTLWTQEHVRQWLEWAIKEYSLVEIDTSFFQNMDGKELCKMNKEDFLRATTLYNTEVLLSHLSYLRES [M37V],0.066 ± 0.076
4,NMTTNERRVIVPADPTLWTQEHVRQWLEWAIKEYSLYEIDTSFFQNMDGKELCKMNKEDFLRATTLYNTEVLLSHLSYLRES [M37Y],0.059 ± 0.13
5,NMTTNERRVIVPADPTLWTQEHVRQWLEWAIKEYSLLEIDTSFFQNMDGKELCKMNKEDFLRATTLYNTEVLLSHLSYLRES [M37L],-0.001 ± 0.065
6,NMTTNERRVIVPADPTLWTQEHVRQWLEWAIKEYSLQEIDTSFFQNMDGKELCKMNKEDFLRATTLYNTEVLLSHLSYLRES [M37Q],-0.242 ± 0.12
7,NMTTNERRVIVPADPTLWTQEHVRQWLEWAIKEYSLWEIDTSFFQNMDGKELCKMNKEDFLRATTLYNTEVLLSHLSYLRES [M37W],-0.13 ± 0.062
8,NMTTNERRVIVPADPTLWTQEHVRQWLEWAIKEYSLGEIDTSFFQNMDGKELCKMNKEDFLRATTLYNTEVLLSHLSYLRES [M37G],-0.02 ± 0.096
9,NMTTNERRVIVPADPTLWTQEHVRQWLEWAIKEYSLEEIDTSFFQNMDGKELCKMNKEDFLRATTLYNTEVLLSHLSYLRES [M37E],-0.115 ± 0.1
10,NMTTNERRVIVPADPTLWTQEHVRQWLEWAIKEYSLNEIDTSFFQNMDGKELCKMNKEDFLRATTLYNTEVLLSHLSYLRES [M37N],-0.44 ± 0.44
11,NMTTNERRVIVPADPTLWTQEHVRQWLEWAIKEYSLKEIDTSFFQNMDGKELCKMNKEDFLRATTLYNTEVLLSHLSYLRES [M37K],0.008 ± 0.093
12,NMTTNERRVIVPADPTLWTQEHVRQWLEWAIKEYSLCEIDTSFFQNMDGKELCKMNKEDFLRATTLYNTEVLLSHLSYLRES [M37C],-0.317 ± 0.4
13,NMTTNERRVIVPADPTLWTQEHVRQWLEWAIKEYSLPEIDTSFFQNMDGKELCKMNKEDFLRATTLYNTEVLLSHLSYLRES [M37P],-0.076 ± 0.099
14,NMTTNERRVIVPADPTLWTQEHVRQWLEWAIKEYSLAEIDTSFFQNMDGKELCKMNKEDFLRATTLYNTEVLLSHLSYLRES [M37A],0.003 ± 0.068
15,NMTTNERRVIVPADPTLWTQEHVRQWLEWAIKEYSLREIDTSFFQNMDGKELCKMNKEDFLRATTLYNTEVLLSHLSYLRES [M37R],-0.055 ± 0.057
16,NMTTNERRVIVPADPTLWTQEHVRQWLEWAIKEYSLFEIDTSFFQNMDGKELCKMNKEDFLRATTLYNTEVLLSHLSYLRES [M37F],0.187 ± 0.1
17,NMTTNERRVIVPADPTLWTQEHVRQWLEWAIKEYSLDEIDTSFFQNMDGKELCKMNKEDFLRATTLYNTEVLLSHLSYLRES [M37D],0.021 ± 0.22

row,Variant,abundance fitness
1,NMTTNERRVIVPADPTLWTQEHVRQWLEWAIKEYSLSEIDTSFFQNMDGKELCKMNKEDFLRATTLYNTEVLLSHLSYLRES [M37S],-0.078 ± 0.092
2,NMTTNERRVIVPADPTLWTQEHVRQWLEWAIKEYSLTEIDTSFFQNMDGKELCKMNKEDFLRATTLYNTEVLLSHLSYLRES [M37T],0.055 ± 0.079
3,NMTTNERRVIVPADPTLWTQEHVRQWLEWAIKEWSLMEIDTSFFQNMDGKELCKMNKEDFLRATTLYNTEVLLSHLSYLRES [Y34W],0.046 ± 0.077
4,NMTTNERRVIVPADPTLWTQEHVRQWLEWAIKEQSLMEIDTSFFQNMDGKELCKMNKEDFLRATTLYNTEVLLSHLSYLRES [Y34Q],-0.346 ± 0.13
5,NMTTNERRVIVPADPTLWTQEHVRQWLEWAIKEMSLMEIDTSFFQNMDGKELCKMNKEDFLRATTLYNTEVLLSHLSYLRES [Y34M],-0.185 ± 0.1
6,NMTTNERRVIVPADPTLWTQEHVRQWLEWAIKERSLMEIDTSFFQNMDGKELCKMNKEDFLRATTLYNTEVLLSHLSYLRES [Y34R],-0.207 ± 0.051
7,NMTTNERRVIVPADPTLWTQEHVRQWLEWAIKENSLMEIDTSFFQNMDGKELCKMNKEDFLRATTLYNTEVLLSHLSYLRES [Y34N],0.245 ± 0.24
8,NMTTNERRVIVPADPTLWTQEHVRQWLEWAIKEVSLMEIDTSFFQNMDGKELCKMNKEDFLRATTLYNTEVLLSHLSYLRES [Y34V],-0.978 ± 0.14
9,NMTTNERRVIVPADPTLWTQEHVRQWLEWAIKEPSLMEIDTSFFQNMDGKELCKMNKEDFLRATTLYNTEVLLSHLSYLRES [Y34P],-0.897 ± 0.28
10,NMTTNERRVIVPADPTLWTQEHVRQWLEWAIKEGSLMEIDTSFFQNMDGKELCKMNKEDFLRATTLYNTEVLLSHLSYLRES [Y34G],-0.215 ± 0.066
11,NMTTNERRVIVPADPTLWTQEHVRQWLEWAIKEESLMEIDTSFFQNMDGKELCKMNKEDFLRATTLYNTEVLLSHLSYLRES [Y34E],-0.181 ± 0.093
12,NMTTNERRVIVPADPTLWTQEHVRQWLEWAIKEHSLMEIDTSFFQNMDGKELCKMNKEDFLRATTLYNTEVLLSHLSYLRES [Y34H],-0.106 ± 0.2
13,NMTTNERRVIVPADPTLWTQEHVRQWLEWAIKESSLMEIDTSFFQNMDGKELCKMNKEDFLRATTLYNTEVLLSHLSYLRES [Y34S],-0.108 ± 0.068
14,NMTTNERRVIVPADPTLWTQEHVRQWLEWAIKEFSLMEIDTSFFQNMDGKELCKMNKEDFLRATTLYNTEVLLSHLSYLRES [Y34F],0.109 ± 0.36
15,NMTTNERRVIVPADPTLWTQEHVRQWLEWAIKEKSLMEIDTSFFQNMDGKELCKMNKEDFLRATTLYNTEVLLSHLSYLRES [Y34K],-0.032 ± 0.11
16,NMTTNERRVIVPADPTLWTQEHVRQWLEWAIKETSLMEIDTSFFQNMDGKELCKMNKEDFLRATTLYNTEVLLSHLSYLRES [Y34T],-0.684 ± 0.17
17,NMTTNERRVIVPADPTLWTQEHVRQWLEWAIKELSLMEIDTSFFQNMDGKELCKMNKEDFLRATTLYNTEVLLSHLSYLRES [Y34L],-0.227 ± 0.061
